Laboratory results from patent US7425614B2, “Neuroprotective therapeutics preventing ERK/MAPK activation through the NMDA receptor” (Children's Medical Center Corporation, priority 2003, dated 2008).

Biological target: T1, RasGRF1 (Mus musculus, UniProt P27671)
T1 construct: In vitro translated full-length RasGRF1 and AU1-tagged NR2B fragments were coimmunopecipitated with AU1 antibody; made in house; host or cells: cell-free in vitro translation (TNT system, [35S]methionine)
T1 sequence (P27671 1-1262): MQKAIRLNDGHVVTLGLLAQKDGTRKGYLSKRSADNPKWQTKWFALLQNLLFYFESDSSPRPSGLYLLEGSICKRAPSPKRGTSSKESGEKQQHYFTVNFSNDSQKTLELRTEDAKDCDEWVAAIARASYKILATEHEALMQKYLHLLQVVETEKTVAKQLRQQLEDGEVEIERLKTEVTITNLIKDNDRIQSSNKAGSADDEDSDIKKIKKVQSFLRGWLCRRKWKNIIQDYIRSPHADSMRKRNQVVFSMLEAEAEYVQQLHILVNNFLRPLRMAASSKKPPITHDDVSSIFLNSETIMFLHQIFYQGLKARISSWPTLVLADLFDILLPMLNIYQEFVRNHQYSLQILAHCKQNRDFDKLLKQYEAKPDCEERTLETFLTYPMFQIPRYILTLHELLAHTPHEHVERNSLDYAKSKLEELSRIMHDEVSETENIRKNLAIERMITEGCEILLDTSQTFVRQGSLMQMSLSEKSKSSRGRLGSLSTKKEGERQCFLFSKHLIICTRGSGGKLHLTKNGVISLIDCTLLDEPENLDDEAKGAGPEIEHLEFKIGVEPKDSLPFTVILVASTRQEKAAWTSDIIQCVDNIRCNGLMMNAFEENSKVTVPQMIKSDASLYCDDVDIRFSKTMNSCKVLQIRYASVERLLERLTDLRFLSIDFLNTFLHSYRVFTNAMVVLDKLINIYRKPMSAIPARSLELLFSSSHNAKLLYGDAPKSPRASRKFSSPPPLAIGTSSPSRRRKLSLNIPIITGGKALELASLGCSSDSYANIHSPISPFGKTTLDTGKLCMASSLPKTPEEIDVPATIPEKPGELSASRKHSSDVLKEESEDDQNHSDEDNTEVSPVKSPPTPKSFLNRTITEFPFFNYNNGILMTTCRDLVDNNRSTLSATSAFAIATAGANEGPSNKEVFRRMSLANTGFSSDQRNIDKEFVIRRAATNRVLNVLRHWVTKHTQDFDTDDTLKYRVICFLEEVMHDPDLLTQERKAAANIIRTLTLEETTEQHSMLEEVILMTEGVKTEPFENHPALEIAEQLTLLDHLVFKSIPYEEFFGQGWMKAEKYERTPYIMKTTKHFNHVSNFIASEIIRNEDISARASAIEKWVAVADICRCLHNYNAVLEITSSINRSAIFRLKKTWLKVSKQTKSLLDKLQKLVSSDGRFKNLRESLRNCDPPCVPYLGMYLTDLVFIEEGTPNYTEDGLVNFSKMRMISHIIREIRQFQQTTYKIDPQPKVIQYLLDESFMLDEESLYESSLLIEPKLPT
Assay: pull-down / in vitro binding of NR2B fragments with in vitro translated RasGRF1
From the text: For in vitro translation, fragments of rat NR2B and rat RasGRF1 were made by PCR with 5′-primers containing AU1- and HA-tag encoding sequences; amplified sequences were subcloned into pcDNA3.1. For 293T transfection, the following cDNAs were used: mouse RasGRF1 in pcDNA3, GFP-rat NR2B, GFP rat NR2A in pcDNA1.1, and rat NR1 in pEGFP-C1 (Clontech). EGFP fusion constructs were made by subcloning cDNA fragments encoding different portions of NR2B and RasGRF1 into pEGFP-C1 (Clontech). EGFP fusion constructs were transferred from pEGFP into pSinRep5 and used for preparation of the Sindbis pseudovirus gene transfer system according to the manufacturer's protocol (Invitrogen, Carlsbad, Calif.).
Mouse RasGRF1 in pcDNA3 (Martegani, E., et al. (1992) EMBO J. 11, 2151-2157) was translated in vitro using the TNT system (Invitrogen) and [^35S]methionine. […]
For in vitro binding experiments, equimolar amounts of in vitro translated ^35S-labeled proteins (calculated from radioactivity of the excised protein band and cysteine content in the specific fragment) were incubated with a 3-fold molar excess of translated RasGRF1 for 30 min at 30° C., diluted with RIPA buffer, and immunoprecipitated with anti-HA-agarose (Santa Cruz). […]

binding to RasGRF1 in vitro: bound
B1: NR2B-BD: peptide of amino acids 886-1310 of the NR2B C-terminal domain that binds RasGRF1; used as NusA or EGFP fusion (protein)
chain: SPTATMNNTHSNILRLLRTAKNMANLSGVNGSPQSALDFIRRESSVYDISEHRRSFTHSDCKSYNNPPCEENLFSDYISEVERTFGNLQLKDSNVYQDHYHHHHRPHSIGSTSSIDGLYDCDNPPFTTQPRSISKKPLDIGLPSSKHSQLSDLYGKFSFKSDRYSGHDDLIRSDVSDISTHTVTYGNIEGNAAKRRKQQYKDSLKKRPASAKSRREFDEIELAYRRRPPRSPDHKRYFRDKEGLRDFYLDQFRTKENSPHWEHVDLTDIYKERSDDFKRDSVSGGGPCTNRSHLKHGTGEKHGVVGGVPAPWEKNLTNVDWEDRSGGNFCRSCPSKLHNYSSTVAGQNSGRQACIRCEACKKAGNLYDISKDNSLQELDQPAAPVAVTSNASSTKYPQSPTNSKAQKKNRNKLRRQHSYDTFVDL
modifications: left off: small tags and cut ends
notes: used as NusA or EGFP fusion
